Source: article PMC6138639 (2018)
Where no end group is shown, it is not given here. Me3 = N6,N6,N6-trimethyl (lysine)

Tests used:
[1] = target: T1, 15N-labeled WT ZZZ3-ZZ used in NMR titrations (human); test: NMR
T1 chain: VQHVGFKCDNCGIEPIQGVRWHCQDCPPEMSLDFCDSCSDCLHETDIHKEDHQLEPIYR

[2] = target: T2, 15N-labeled ZZZ3-ZZ F821A used in NMR titrations (human); test: NMR
T2 chain: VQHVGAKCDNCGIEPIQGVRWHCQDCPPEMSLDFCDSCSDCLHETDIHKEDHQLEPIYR

H3K4me3 (1-12) peptide = target: T3, H3K4me3 (1-12) peptide (Homo sapiens); test: tryptophan fluorescence
T3 chain: H-ARTK(Me3)QTARKSTG

With ARTK(Ac)QTAR [H3K4ac peptide of the tryptophan fluorescence and NMR titration experiments] as the binder, how does the Kd [1] read?
Its Kd is 14 µM.

What about the Kd [2] of the same binder?
Its Kd is 480 µM.

Which results are given for ARTKQTARKSTG [unmodified H3 peptide of the tryptophan fluorescence and NMR titration experiments]?
Kd [1]: 42 µM; Kd [2]: 400 µM

B1: ZZZ3 ZZ domain (aa 800–903), GST cleaved (domain or fragment)
chain: KLKKQKLQQMQAESGFVQHVGFKCDNCGIEPIQGVRWHCQDCPPEMSLDFCDSCSDCLHETDIHKEDHQLEPIYRSETFLDRDYCVSQGTSYNYLDPNYFPANR
Which Kd (H3K4me3 (1-12) peptide) does the source give for B1 here?
The Kd was 22 µM.
